The target in the assay is T1, NF-κB p65 (mouse, intestinal epithelial cells of wild-type C57BL/6J and Min mice) (mouse, UniProt Q04207 1-549).
T1 construct: Endogenous mouse protein
Put plainly: anti-p65 immunoprecipitation of nuclear extract from mouse intestinal epithelial cells, immunoblot. A general note: A western blot detects proteins with antibodies after separation by electrophoresis.

T1 sequence (Q04207 whole entry): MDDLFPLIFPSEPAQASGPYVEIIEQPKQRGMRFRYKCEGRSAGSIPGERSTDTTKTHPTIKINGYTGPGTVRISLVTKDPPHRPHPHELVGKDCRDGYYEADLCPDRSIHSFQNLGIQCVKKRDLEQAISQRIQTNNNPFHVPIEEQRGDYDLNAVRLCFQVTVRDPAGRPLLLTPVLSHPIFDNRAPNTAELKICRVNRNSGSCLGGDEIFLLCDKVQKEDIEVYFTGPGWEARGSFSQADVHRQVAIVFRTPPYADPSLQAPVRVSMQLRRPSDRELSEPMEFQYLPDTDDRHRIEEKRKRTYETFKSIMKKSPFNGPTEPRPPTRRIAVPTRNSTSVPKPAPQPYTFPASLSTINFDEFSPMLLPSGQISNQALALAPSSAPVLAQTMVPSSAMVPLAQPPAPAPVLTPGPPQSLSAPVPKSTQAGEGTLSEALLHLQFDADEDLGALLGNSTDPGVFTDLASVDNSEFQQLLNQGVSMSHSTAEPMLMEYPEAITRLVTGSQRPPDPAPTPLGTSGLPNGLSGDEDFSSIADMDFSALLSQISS

B1: annexin 1 (mouse, intestinal epithelial cells of wild-type C57BL/6J and Min mice) (other, UniProt P10107 2-346, looked up)
chain: AMVSEFLKQARFLENQEQEYVQAVKSYKGGPGSAVSPYPSFNVSSDVAALHKAIMVKGVDEATIIDILTKRTNAQRQQIKAAYLQENGKPLDEVLRKALTGHLEEVVLAMLKTPAQFDADELRGAMKGLGTDEDTLIEILTTRSNEQIREINRVYREELKRDLAKDITSDTSGDFRKALLALAKGDRCQDLSVNQDLADTDARALYEAGERRKGTDVNVFTTILTSRSFPHLRRVFQNYGKYSQHDMNKALDLELKGDIEKCLTTIVKCATSTPAFFAEKLYEAMKGAGTRHKALIRIMVSRSEIDMNEIKVFYQKKYGISLCQAILDETKGDYEKILVALCGGN
notes: Endogenous mouse protein; also called induced annexin 1
In the case of B1, the binding result is “binds”.

The values are drawn from patent US20120004175A1 (RESEARCH FOUNDATION OF STATE UNIVERSITY OF NEW YORK, published 2012).
